Among the data in article PMC4844702, “Selective inhibition of the kinase DYRK1A by targeting its folding process” (Nature Communications, 2016) are fold change values, retold here.

The target of the assay is CDC37 (UniProt Q16543). The assay can be described thus: anti-FLAG plate capture, CDC37-nanoKAZ luminescence. The following applies: reference: wild type.

Under “sites S97”, “DYRK1A (from UniProt Q13627) K188R kinase-dead” yielded a fold change of 54. Still for that read-out and setting: next, DYRK1A (from UniProt Q13627) S97A: 2.2.

Regarding “DYRK1A (from UniProt Q13627) Y319F/Y321F”, where the note is “sites Y319,Y321”, the fold change stood at 6.2. For the substance DYRK1A (from UniProt Q13627) Y321F, the fold change (sites Y321) was 5.2.
